Experimental data taken from publication PMC12612594, “Nuclear Magnetic Resonance‐based fragment screen of the E3 ligase Fem‐1 homolog B” (Protein Science : A Publication of the Protein Society, 2025).

Columns and labels:
[1] = thermal shift assay of FEM1B constructs; assay type: physicochemical; conditions: average of three replicates
Procedure: The substrate binding domain of FEM1B (residues 1–356, ~42 kDa molecular weight) was prepared for NMR‐based screening. However, this construct (FEM1B WT) was prone to aggregation and was not suitable for the NMR experiments. […] To reduce the potential for aggregation, we prepared several mutants of FEM1B constructs and evaluated their stability using a thermal shift assay (Table 1).

[2] = stability of construct at room temperature; assay type: physicochemical
From the text: Two FEM1B constructs (FEM1B‐1 and FEM1B‐2) were designed to remove free cysteines on the exterior of the protein to prevent disulfide bond formation and prevent aggregation. FEM1B‐3 to FEM1B‐11 were designed to modify hydrophobic residues on the protein surface and reduce the predicted pI away from the pH needed for the experiment. To accomplish this, residues such as Leu, Ile, Val, or Arg were mutated to negatively charged residues (Asp or Glu) to shift the pI to be more acidic. Hydrophobic residues on the surface of the protein were chosen for mutation to also reduce solvent‐exposed hydrophobic patches that may be contributing to the aggregation (Figure S1, Supporting Information).

B1: FEM1B‐11: FEM1B construct, mutations L4E, L18E, A21E, L25S, Y84A, I270N, L281E, R321D (protein, UniProt Q9UK73 1-627, looked up, variant L4E L18E A21E L25S Y84A I270N L281E R321D)
Protein fem-1 homolog B: MEGEAGYVYKAASEGKVETLEALLSNRSESDIRYLLGYVSQQGGQRSTPLIIAARNGHAKVVRLLLEHYRVQTQQTGTVRFDGAVIDGATALWCAAGAGHFEVVKLLVSHGANVNHTTVTNSTPLRAACFDGRLDIVKYLVENNANISIANKYDNTCLMIAAYKGHTDVVRYLLEQRADPNAKAHCGATALHFAAEAGHIDIVKELIKWRAAIVVNGHGMTPLKVAAESCKADVVELLLSHADCDRRSRIEALELLGASFANDRENYDINKTYHYLYLAMEERFQDGDNILEKEVLPPIHAYGNRTECRNPQELESIRQDDDALHMEGLIVRERILGADNIDVSHPIIYRGAVYADNMEFEQCIKLWLHALHLRQKGNRNTHKDLLRFAQVFSQMIHLNETVKAPDIECVLRCSVLEIEQSMNRVKNISDADVHNAMDNYECNLYTFLYLVCISTKTQCSEEDQCKINKQIYNLIHLDPRTREGFTLLHLAVNSNTPVDDFHTNDVCSFPNALVTKLLLDCGAEVNAVDNEGNSALHIIVQYNRPISDFLTLHSIIISLVEAGAHTDMTNKQNKTPLDKSTTGVSEILLKTQMKMSLKCLAARAVRANDINYQDQIPRTLEEFVGFH
- Tm ± SD [1]: 48.6 ± 1.7 °C
- stable at room temperature [2]: over 24 h
